Assay results taken from patent US20190078119A1.

Molecular target: AAV8 capsid (native AAV8) (AAV8)
Assay: cell-based or functional assay

Q: With monoclonal antibody ADK8/9 as the substance, how does the AAV8 Nab titer (neutralizing antibody titer of the antibody stock) read?
A: 2560 titer 1:n

Q: Which AAV8 Nab titer (neutralizing antibody titer of the antibody stock) does the source give for monoclonal antibody ADK9 here?
A: 5 titer 1:n

Q: monoclonal neutralizing antibody ADK8 was tested. Which AAV8 Nab titer (neutralizing antibody titer of the antibody stock) did it give?
A: 2560 titer 1:n
